Earlier results, collected in article PMC9594322.

Biological target: HIF-1β PAS-B (Homo sapiens) (UniProt P27540)
Sequence (P27540 356-470): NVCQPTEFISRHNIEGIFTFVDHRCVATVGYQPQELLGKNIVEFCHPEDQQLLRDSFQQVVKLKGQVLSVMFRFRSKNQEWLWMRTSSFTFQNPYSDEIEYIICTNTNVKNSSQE

HIF-1α PAS-B, sequence (Q16665 238-349): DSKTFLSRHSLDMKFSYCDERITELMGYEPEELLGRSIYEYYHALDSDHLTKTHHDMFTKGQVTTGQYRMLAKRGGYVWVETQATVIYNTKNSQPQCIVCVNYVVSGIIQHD

HIF-1α PAS-B (from UniProt Q16665)
Kd: 0.378 µM
